Measured values: US8357523B2, “Beta-glucosidase variant enzymes and related polynucleotides” (Codexis, Inc., priority 2009, dated 2013)
Changes are numbered by the printed parent chain.

B1: 185 (protein)
chain: STAIAQEGAAPAAILHPEKWPRPATQRLIDPAVEKRVDALLKQLSVEEKVGQVIQGDIGTITPEDLRKYPLGSILAGGNSGPNGDDRAPPKEWLDLADAFYRVSLEKRPGHTPIPVLFGIDAVHGHGNIGSATIFPHNIALGATRDPELLRRIGEVTAQEMAATGIDWTFAPALSVVRDDRWGRTYEGFSEDPEIVASYSAAIVEGVQGKYGSKDFMAPGRAVACAKHFLADGGTDQGRDQGDARISEDELIRIHNAGYPPAIDAGVLTVMASFSSWQGIKHHGHKQLLTDVLKGQMGFNGFIVGDWNAHDQVPGCTKFNCPTSLIAGLDMYMAADSWKQLYENTLAQVKDGTIPMARLDDAVRRILRVKVLAGLFEKPASKDRPGLPGLETLGSPEHRAVGREAVRKSLVLLKNDKGTLPLSPKARVLVAGDGADNIGKQSGGWTISWQGTGNRNDEFPGATSILGGIRDAVADAGGSVEFDVAGQYKTKPDVAIVVFGEEPYAEFQGDVETLEYQPDQKQDLALLKKLKDQGIPVVAVFLSGRPMWVNPELNASDAFVAAWLPGTEGGGVADVLFTDKAGKVQHDFAGKLSYSWPRTAAQTTVNRGDADYNPLFAYGYGLTYKDKSKVGTLPEESGVPAEARQNAGIYFRAGALRLPGRFL
B2: 96 (protein)
chain: B1 chain with A143M, Q159E, S198A, A222I, C225S, S381P
B3: 87 (protein)
chain: B1 chain with N79D, A143M, Q159V, A222I, C225S, S381P
B4: 188 (protein)
chain: B1 chain with N79D, N128K, D146S, Q159V, A162T, A222I, C225S, S381P
B5: 208 (protein)
chain: B1 chain with G59R, N79D, A143M, Q159E, Y211F, A222I, C225S, S381P
B6: 95 (protein)
chain: B1 chain with A222I, C225S, S381P
B7: 98 (protein)
chain: B1 chain with T2A, Q159V, A162T, S198A, A201P, Y211F, C225S, S381P
B8: 93 (protein)
chain: B1 chain with Q159V, S198A, A222I, C225S, S381P
B9: 196 (protein)
chain: B1 chain with N79D, A143M, Q159E, Y211F, A222I, C225S, S381P, G570P, T604P
B10: 203 (protein)
chain: B1 chain with N79D, A143M, Q159E, Y211F, A222I, C225S, S381P, A485P
B11: 89 (protein)
chain: B1 chain with N79D, Q159V, Y211F, P219V, A222I, C225S, S381P
B12: 206 (protein)
chain: B1 chain with N79D, A143M, Q159E, Y211F, S213P, A222I, C225S, S381P
B13: 92 (protein)
chain: B1 chain with A143M, Q159V, S198A, Y211F, A222I, C225S, S381P
B14: 191 (protein)
chain: B1 chain with Q159V, S198A, Y211F, A222I, C225S, F274A, S381P, D436N
B15: 91 (protein)
chain: B1 chain with N79D, A143M, Q159V, S198A, Y211F, A222I, C225S, S381P
B16: 86 (protein)
chain: B1 chain with A143M, Q159V, Y211F, P219M, A222I, C225S, S381P
B17: 193 (protein)
chain: B1 chain with Q159V, S198A, Y211F, A222I, C225S, I326S, S381P
B18: 200 (protein)
chain: B1 chain with N79D, A143M, Q159E, Y211F, A222I, C225S, S381P
B19: 204 (protein)
chain: B1 chain with Q26R, N79D, A143M, Q159E, Y211F, A222I, C225S, S381P, T604P
B20: 189 (protein)
chain: B1 chain with Q159V, S198A, Y211F, A222I, C225S, F274K, S381P
B21: 97 (protein)
chain: B1 chain with A143M, Q159V, S198A, A222I, C225S, S381P, E642A, A643P
B22: 209 (protein)
chain: B1 chain with N79D, A143M, Q159E, Y211F, A222I, C225S, M331L, S381P, A485P
B23: 199 (protein)
chain: B1 chain with N79D, A143M, Q159E, Y211F, S213P, G220V, A222I, C225S, S381P
B24: 84 (protein)
chain: B1 chain with N128K, Q159V, S198A, Y211F, C225S, S381P
B25: 197 (protein)
chain: B1 chain with N79D, A143M, Q159E, Y211F, A222I, C225S, S381P, A485P, T604P
B26: 85 (protein)
chain: B1 chain with N79D, D85N, Q159V, S198A, A222I, C225S, S381P
B27: 186 (protein)
chain: B1 chain with N79D, N128K, I134N, S198A, Y211F, A222I, S381P
B28: 90 (protein)
chain: B1 chain with N79D, Q159V, S198A, A222I, C225S, S381P
B29: 88 (protein)
chain: B1 chain with N79D, Q159V, S198A, Y211F, A222I, C225S, S381P
B30: 198 (protein)
chain: B1 chain with N79D, A143M, Q159E, Y211F, S213P, A222I, C225S, S381P, A485P
B31: 190 (protein)
chain: B1 chain with Q159V, S198A, Y211F, A222I, C225S, F274Q, S381P
B32: 205 (protein)
chain: B1 chain with N79D, A143M, Q159E, Y211F, A222I, C225S, S381P, S479A
B33: 202 (protein)
chain: B1 chain with N79D, A143M, Q159E, Y211F, A222I, C225S, S381P, G570P
B34: 194 (protein)
chain: B1 chain with N79D, A143M, Q159E, Y211F, A222I, C225S, A257P, S381P, A485P
B35: 207 (protein)
chain: B1 chain with N79D, A143M, Q159E, Y211F, A222I, C225S, S381P, T604P
B36: 82 (protein)
chain: B1 chain with N128K, D146S, Q159V, S198A, Y211F, S381P
B37: 83 (protein)
chain: B1 chain with Q159V, S198A, Y211F, S381P, A525T
B38: 201 (protein)
chain: B1 chain with N79D, A143M, Q159E, Y211F, A222I, C225S, S381P, A539V
B39: 192 (protein)
chain: B1 chain with Q159V, S198A, Y211F, A222I, C225S, F274A, S381P

Experiment: High throughput cellobiose assay: fold improvement in cellobiase activity of CelA variants over a control enzyme (Tables 2A-2D, 3, 5, 6, 7)
Assay type: biochemical
Conditions: 3.3 g/l cellobiose, 55° C. and pH 6.0

Row | Molecule | Fold improvement over Control Variant No. 5 from Table 2A
1 | B1 | ++ (++ = 1.1 to 6 fold improvement over control Variant No. 2)
2 | B2 | ++ (++ = 1.1 to 6 fold improvement over control Variant No. 2)
3 | B3 | +++ (+++ = 6 to 13 fold improvement over control Variant No. 2)
4 | B4 | ++ (++ = 1.1 to 6 fold improvement over control Variant No. 2)
5 | B5 | ++ (++ = 1.1 to 6 fold improvement over control Variant No. 2)
6 | B6 | ++ (++ = 1.1 to 6 fold improvement over control Variant No. 2)
7 | B7 | +++ (+++ = 6 to 13 fold improvement over control Variant No. 2)
8 | B8 | ++ (++ = 1.1 to 6 fold improvement over control Variant No. 2)
9 | B9 | ++ (++ = 1.1 to 6 fold improvement over control Variant No. 2)
10 | B10 | ++ (++ = 1.1 to 6 fold improvement over control Variant No. 2)
11 | B11 | ++ (++ = 1.1 to 6 fold improvement over control Variant No. 2)
12 | B12 | ++ (++ = 1.1 to 6 fold improvement over control Variant No. 2)
13 | B13 | ++ (++ = 1.1 to 6 fold improvement over control Variant No. 2)
14 | B14 | ++ (++ = 1.1 to 6 fold improvement over control Variant No. 2)
15 | B15 | +++ (+++ = 6 to 13 fold improvement over control Variant No. 2)
16 | B16 | ++ (++ = 1.1 to 6 fold improvement over control Variant No. 2)
17 | B17 | ++ (++ = 1.1 to 6 fold improvement over control Variant No. 2)
18 | B18 | +++ (+++ = 6 to 13 fold improvement over control Variant No. 2)
19 | B19 | ++ (++ = 1.1 to 6 fold improvement over control Variant No. 2)
20 | B20 | ++ (++ = 1.1 to 6 fold improvement over control Variant No. 2)

Row | Molecule | Fold improvement over Control Variant No. 5 from Table 2A
21 | B21 | +++ (+++ = 6 to 13 fold improvement over control Variant No. 2)
22 | B22 | ++ (++ = 1.1 to 6 fold improvement over control Variant No. 2)
23 | B23 | ++ (++ = 1.1 to 6 fold improvement over control Variant No. 2)
24 | B24 | +++ (+++ = 6 to 13 fold improvement over control Variant No. 2)
25 | B25 | ++ (++ = 1.1 to 6 fold improvement over control Variant No. 2)
26 | B26 | ++ (++ = 1.1 to 6 fold improvement over control Variant No. 2)
27 | B27 | +++ (+++ = 6 to 13 fold improvement over control Variant No. 2)
28 | B28 | ++ (++ = 1.1 to 6 fold improvement over control Variant No. 2)
29 | B29 | ++ (++ = 1.1 to 6 fold improvement over control Variant No. 2)
30 | B30 | ++ (++ = 1.1 to 6 fold improvement over control Variant No. 2)
31 | B31 | ++ (++ = 1.1 to 6 fold improvement over control Variant No. 2)
32 | B32 | ++ (++ = 1.1 to 6 fold improvement over control Variant No. 2)
33 | B33 | ++ (++ = 1.1 to 6 fold improvement over control Variant No. 2)
34 | B34 | ++ (++ = 1.1 to 6 fold improvement over control Variant No. 2)
35 | B35 | ++ (++ = 1.1 to 6 fold improvement over control Variant No. 2)
36 | B36 | +++ (+++ = 6 to 13 fold improvement over control Variant No. 2)
37 | B37 | +++ (+++ = 6 to 13 fold improvement over control Variant No. 2)
38 | B38 | ++ (++ = 1.1 to 6 fold improvement over control Variant No. 2)
39 | B39 | ++ (++ = 1.1 to 6 fold improvement over control Variant No. 2)
